Laboratory results published in article PMC7203112, “Structural basis for the complex DNA binding behavior of the plant stem cell regulator WUSCHEL”.

T1: MBP-WUS-FL (Arabidopsis thaliana, UniProt Q9SB92 1-292)
T1 sequence: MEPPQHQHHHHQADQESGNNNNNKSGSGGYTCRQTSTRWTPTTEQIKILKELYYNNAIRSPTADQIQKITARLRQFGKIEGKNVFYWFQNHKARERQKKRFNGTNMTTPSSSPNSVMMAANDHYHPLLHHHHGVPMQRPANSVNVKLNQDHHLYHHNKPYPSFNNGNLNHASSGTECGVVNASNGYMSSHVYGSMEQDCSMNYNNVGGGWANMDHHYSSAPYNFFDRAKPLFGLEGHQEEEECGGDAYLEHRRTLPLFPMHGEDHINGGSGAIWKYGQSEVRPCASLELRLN

T2: WUS-HD R94K (Arabidopsis thaliana, UniProt Q9SB92 34-103, R94K)
T2 sequence: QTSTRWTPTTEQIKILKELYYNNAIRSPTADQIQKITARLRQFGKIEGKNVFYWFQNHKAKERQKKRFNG

T3: WUS-HD T35R (Arabidopsis thaliana, UniProt Q9SB92 34-103, T35R)
T3 sequence: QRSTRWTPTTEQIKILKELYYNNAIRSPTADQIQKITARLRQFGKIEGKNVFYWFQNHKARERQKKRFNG

T4: WUS-HD S36R (Arabidopsis thaliana, UniProt Q9SB92 34-103, S36R)
T4 sequence: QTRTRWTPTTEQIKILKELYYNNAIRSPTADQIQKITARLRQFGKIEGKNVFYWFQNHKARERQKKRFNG

T5: WUS-HD RRK (Arabidopsis thaliana, UniProt Q9SB92 34-103, T35R;S36R;R94K)
T5 sequence: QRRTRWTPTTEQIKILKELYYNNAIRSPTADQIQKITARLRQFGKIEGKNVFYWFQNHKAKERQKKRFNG

T6: WUS-HD F101A (Arabidopsis thaliana, UniProt Q9SB92 34-103, F101A)
T6 sequence: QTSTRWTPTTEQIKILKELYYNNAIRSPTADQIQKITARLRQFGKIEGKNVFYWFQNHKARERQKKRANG

B1: f_TAAT (dsDNA)
DNA 1: CAATGTGTTAATGGGTTGTT
DNA 2: AACAACCCATTAACACATTG
B2: f_TGAA (dsDNA)
DNA 1: CATCGTCGTTCATTCAATGGG
DNA 2: CCCATTGAATGAACGACGATG

Experiments:
[1] = biological target: T1, MBP-WUS-FL; assay: EMSA; MST: 20 mM Tris-HCl pH 8.0, 75 mM NaCl, 10 mM MgCl2, 0.05% Tween-20, 20 C, 50 nM YFP-WUS; ITC: same without Tween, 20 C; EMSA: 10 mM Tris-HCl pH 8.0, 75 mM NaCl, 50 ug/ml poly(dI-dC), 1 mM EDTA, 1 mM DTT, 5% glycerol; details: protein: recombinant; tags: N-terminal His6-MBP; chain copies: 2; label: Cy5; blunt
[2] = biological target: T2, WUS-HD R94K; assay: EMSA; like wt; MST: 20 mM Tris-HCl pH 8.0, 75 mM NaCl, 10 mM MgCl2, 0.05% Tween-20, 20 C, 50 nM YFP-WUS; ITC: same without Tween, 20 C; EMSA: 10 mM Tris-HCl pH 8.0, 75 mM NaCl, 50 ug/ml poly(dI-dC), 1 mM EDTA, 1 mM DTT, 5% glycerol; details: protein: recombinant; tags: none after TEV cleavage; label: Cy5; blunt
[3] = biological target: T3, WUS-HD T35R; assay: EMSA; predominantly monomer; MST: 20 mM Tris-HCl pH 8.0, 75 mM NaCl, 10 mM MgCl2, 0.05% Tween-20, 20 C, 50 nM YFP-WUS; ITC: same without Tween, 20 C; EMSA: 10 mM Tris-HCl pH 8.0, 75 mM NaCl, 50 ug/ml poly(dI-dC), 1 mM EDTA, 1 mM DTT, 5% glycerol; details: protein: recombinant; tags: none after TEV cleavage; label: Cy5; blunt
[4] = biological target: T4, WUS-HD S36R; assay: as above; details: protein: recombinant; tags: none after TEV cleavage; label: Cy5; blunt
[5] = biological target: T5, WUS-HD RRK; assay: EMSA; similar to T35R and S36R; MST: 20 mM Tris-HCl pH 8.0, 75 mM NaCl, 10 mM MgCl2, 0.05% Tween-20, 20 C, 50 nM YFP-WUS; ITC: same without Tween, 20 C; EMSA: 10 mM Tris-HCl pH 8.0, 75 mM NaCl, 50 ug/ml poly(dI-dC), 1 mM EDTA, 1 mM DTT, 5% glycerol; details: protein: recombinant; tags: none after TEV cleavage; label: Cy5; blunt
[6] = biological target: T3, WUS-HD T35R; assay: EMSA; MST: 20 mM Tris-HCl pH 8.0, 75 mM NaCl, 10 mM MgCl2, 0.05% Tween-20, 20 C, 50 nM YFP-WUS; ITC: same without Tween, 20 C; EMSA: 10 mM Tris-HCl pH 8.0, 75 mM NaCl, 50 ug/ml poly(dI-dC), 1 mM EDTA, 1 mM DTT, 5% glycerol; details: protein: recombinant; tags: none after TEV cleavage; label: Cy5; blunt
[7] = biological target: T4, WUS-HD S36R; assay: as above; details: protein: recombinant; tags: none after TEV cleavage; label: Cy5; blunt
[8] = biological target: T6, WUS-HD F101A; assay: EMSA; predominantly monomer; probe called 2xTGAA; MST: 20 mM Tris-HCl pH 8.0, 75 mM NaCl, 10 mM MgCl2, 0.05% Tween-20, 20 C, 50 nM YFP-WUS; ITC: same without Tween, 20 C; EMSA: 10 mM Tris-HCl pH 8.0, 75 mM NaCl, 50 ug/ml poly(dI-dC), 1 mM EDTA, 1 mM DTT, 5% glycerol; details: protein: recombinant; tags: none after TEV cleavage; label: Cy5; blunt

Binder | Kd [1] | binding result [2] | binding result [3] | binding result [4] | binding result [5] | binding result [6] | binding result [7] | binding result [8]
B1 | 3150 ± 260 nM | binds | binds | binds | binds |  |  | 
B2 | 360 ± 60 nM |  |  |  |  | binds | binds | binds
